These results are taken from US11230581B2, “Peptides and combination of peptides for use in immunotherapy against ovarian cancer and other cancers” (Immatics Biotechnologies GmbH, priority 2015, dated 2022).

The target in the experiment is HLA-A*02:01 (Homo sapiens, UniProt P04439, D140Y/D185E/D98H/E176V/E277Q/G131W/G231S/I119V/I121R/I166T/I218V/L300P/L318F/N151K/N90K/P208A/P217A/Q86G/Q94H/R138H/R169H/T345S). The experiment is described as follows: MHC binding assay (UV-ligand exchange, β2m ELISA, peptide exchange yield). As to conditions: binding of HLA-class I restricted peptides to HLA-A*02:01, UV-ligand exchange. In outline: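 Peptide-MHC complexes formed by UV-ligand exchange, cleaving a UV-sensitive placeholder peptide in favour of the test peptide. Exchange yield measured by ELISA: monomers diluted 100-fold onto streptavidin-coated plates, 1 h 37 °C, detected with 2 ug/ml HRP anti-β2m and TMB, absorbance at 450 nm.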
A general note: ELISA stands for enzyme-linked immunosorbent assay.
Consider “144 (YIMEPSIFNTL; listed as Homo sapiens) [compound 144]”, for which the “Peptide exchange (MHC class I binding score, peptide exchange yield)” value (“Peptide exchange” below) is on record as ““+++” (≥50 = +++)”. The value for “145 (FLATSGTLAGI; listed as Homo sapiens) [compound 145]” was ““++” (≥20% = ++)”; that for “146 (SLATAGDGLIEL; listed as Homo sapiens) [compound 146]” was ““++” (≥20% = ++)”.

Consider “147 (SLLEAVSFL; listed as Homo sapiens) [compound 147]”, for which the “Peptide exchange” value is ““+++” (≥50 = +++)”. As for “148 (ALNPEIVSV; listed as Homo sapiens) [compound 148]”, the “Peptide exchange” value is recorded as ““++” (≥20% = ++)”.

Take “149 (NLLELFVQL; listed as Homo sapiens) [compound 149]”: the “Peptide exchange” value is given as ““+++” (≥50 = +++)”.

Turning to “150 (RLWEEGEELEL; listed as Homo sapiens) [compound 150]”, the “Peptide exchange” value is on record as ““+++” (≥50 = +++)”. With “151 (KILQQLVTL; listed as Homo sapiens) [compound 151]” the entry was ““+++” (≥50 = +++)”; with “152 (ILFEDIFDV; listed as Homo sapiens) [compound 152]”, ““+++” (≥50 = +++)”. The value for “153 (FLIANVLYL; listed as Homo sapiens) [compound 153]” was ““+” (≥10% = +)”; that for “154 (ALDDGTPAL; listed as Homo sapiens) [compound 154]” was ““++” (≥20% = ++)”. With “155 (RVANLHFPSV; listed as Homo sapiens) [compound 155]” the entry was ““+++” (≥50 = +++)”; with “157 (SLNDEVPEV; listed as Homo sapiens) [compound 157]”, ““++” (≥20% = ++)”. For “158 (KLFDVDEDGYI; listed as Homo sapiens) [compound 158]”, the “Peptide exchange” value is recorded as ““+++” (≥50 = +++)”.

As for “159 (GLVGNPLPSV; listed as Homo sapiens) [compound 159]”, the “Peptide exchange” value is on record as ““++++” (≥75% = ++++)”.

In the case of “160 (FLFDEEIEQI; listed as Homo sapiens) [compound 160]”, the “Peptide exchange” value is ““+++” (≥50 = +++)”. Take “161 (ALLEGVNTV; listed as Homo sapiens) [compound 161]”: the “Peptide exchange” value is given as ““+++” (≥50 = +++)”. With “162 (YQQAQVPSV; listed as Homo sapiens) [compound 162]” the entry was ““+++” (≥50 = +++)”.

In the case of “163 (ALDEMGDLLQL; listed as Homo sapiens) [compound 163]”, the “Peptide exchange” value is reported as ““+++” (≥50 = +++)”. As for “164 (ALLPQPKNLTV; listed as Homo sapiens) [compound 164]”, the “Peptide exchange” value was ““+++” (≥50 = +++)”.

Consider “165 (SLLDEIRAV; listed as Homo sapiens) [compound 165]”, for which the “Peptide exchange” value was ““+++” (≥50 = +++)”. With “166 (YLNHLEPPV; listed as Homo sapiens) [compound 166]” the entry was ““+++” (≥50 = +++)”; with “167 (KVLEVTEEFGV; listed as Homo sapiens) [compound 167]”, ““+++” (≥50 = +++)”. Take “168 (KILDADIQL; listed as Homo sapiens) [compound 168]”: the “Peptide exchange” value was ““++++” (≥75% = ++++)”. Consider “169 (NLPEYLPFV; listed as Homo sapiens) [compound 169]”, for which the “Peptide exchange” value is ““+++” (≥50 = +++)”.
